Test [1] has as its system ES cell line that constitutively over-expressed the transcription factor MyoD. The test can be described thus: Skeletal muscle differentiation efficiency of MyoD ES cells, myosin heavy chain (MHC) immunostaining. Type of test: cell-based, mouse. The source says: FIG. 2A depicts a differentiation time course of ES cells to skeletal muscle when exposed to low serum vs high serum conditions. […] LIF was removed at Day 0. Low serum was then initiated at different starting times beginning with Day 0. Cells were then fixed and immunostained for myosin heavy chain (MHC) expression. Differentiating cells in high serum were continuously split to prevent overgrowth. FIG. 2B depicts a comparison of differentiation efficiency generated by two types of defined media (N2B27) and 20% KOSR, low serum media (2% horse serum+insulin), and high serum media (15% FBS). Cells were removed from standard ES media (LIF and serum) and incubated in the specified media starting from Day 0 to Day 4. Continuation of LIF (1000 U/ml) or addition of Bmp4 (10 ng/ml) results in a strong block to muscle differentiation.
To probe the effect of the cell cycle on differentiation an ES cell line was used that constitutively over-expressed the transcription factor MyoD driven off an EF1alpha promoter (5) activated by tamoxifen-induced Cre recombination. […]
However any implication of growth factor effects through the manipulation of serum can be fraught with the inconsistencies and complexities of serum. […] Use of both media in ES cells led to activation of MyoD and terminal myogenesis similar to the 2% low serum media, with some improvement (FIG. 2B; assessed on Day 4). […]

In test [2] the test system is Hnf4α-overexpressing ES cells. The experiment in a line: Hepatoblast-like differentiation of Hnf4α-overexpressing ES cells, alphafetoprotein (AFP) expression. Type of test: cell-based. As to conditions: added to growth factor-free media; day 4. The source says: FIGS. 13A-13B depict hepatoblast-like cells. […] Alpha-fetoprotein mRNA expression after 4 days in media of different growth factor content. FIG. 13B depicts a time course of gene expression for hepatic lineage factors and hepatocyte markers in growth factor-free (N2B27) media.
One essential lineage specifying factor for hepatocytes is hepatic nuclear factor 4α (Hnf4α)(6). Switching of Hnf4α-overexpressing ES cells to growth factor-free or growth factor-reduced media led to the activation of a subset of hepatic genes. At day 0, LIF and doxycycline were removed and the media was either switched or kept to 15% FBS. By day 4, there were high levels of alphafetoprotein (AFP) that could be detected in the cells differentiated in the growth factor-free or growth factor-reduced media and less than 10% the level of AFP in cells in 15% FBS (FIG. 13A and FIG. 16). AFP expression could be confirmed by immunostaining. While this activation by growth factor withdrawal was similar to the pattern seen in previous cell types, there was an additional interesting point of variation compared to other lineages examined so far. […] Albumin production was also detected, as was Sox17, Pparα, Cdh3, Tbx3, Krt18, Hhex, Lrh1, C/EBPα, Hnf1a, and Hnf1b. […]
(§1) RNA isolation and qPCR. […] Quantitative PCR was performed using Bio-rad's SYBR™ green Supermix. […]

In test [3] the test system is iNIL ES cells (Ngn2, Isl1, Lhx3). The test can be described thus: Spinal motor neuron differentiation of iNIL ES cells, beta-3 tubulin (Tubb3) expression. Type of test: cell-based, mouse. As to conditions: added back into growth factor-free media.
Text: FIGS. 11A-11B depict spinal motor neurons. […] FIG. 11B depicts a time course of gene expression for neuronal lineage factors and motor neuron terminal differentiation markers in growth factor-free (N2B27) media.
To generate spinal motor neurons, a mouse ES cell line that overexpressed a combination of three transcription factor lineage specifiers (Ngn2, Isl1, Lhx3) was used. This combination was previously shown to specify spinal motor neuron identity (4). These iNIL cells, as they are also called, upon doxycycline stimulation express the three transcription factors from a single open reading frame coupled by 2A peptides. Growth factor withdrawal was used as the method of cell cycle manipulation in the experiments described in this Example.
As expected from the results on skeletal muscle myotubes, neurons rapidly formed from ES cells upon switching to different types of growth factor-free media. […] Tubb3 expression was confirmed by immunostaining. When either of the ES cell growth factors LIF or Bmp4 were added back into growth factor-free media, there was a strong block on neuronal differentiation.
ESC differentiation. Twenty-four hours before starting, ESCs are trypsinized and spread out as monolayer onto gelatin in standard ES media. […]
as §1

B1: Bmp4: ES cell growth factor, promotes Id protein family expression (protein, UniProt P21275 293-408, looked up)
Bone morphogenetic protein 4: SPKHHPQRSRKKNKNCRRHSLYVDFSDVGWNDWIVAPPGYQAFYCHGDCPFPLADHLNSTNHAIVQTLVNSVNSSIPKACCVPTELSAISMLYLDEYDKVVLKNYQEMVVEGCGCR
Regarding B1, the “MHC+ nuclei (differentiation) when added back to N2B27” value in test [1] (LIF 1000 U/ml or Bmp4 10 ng/ml added back to N2B27, Day 4) turned out to be 0%. The muscle differentiation entry in test [1] (continuation of LIF (1000 U/ml) or addition of Bmp4 (10 ng/ml), Day 0 to Day 4) is given as “strong block”. For the same molecule, the AFP expression entry in test [2] is on record as “did not reduce”. In addition, the neuronal differentiation entry in test [3] is given as “strong block”.

Values taken from patent US10767162B2, “Methods for differentiation” (PRESIDENT AND FELLOWS OF HARVARD COLLEGE, priority 2014, dated 2020).
